# B1: human chemokine CX3CL1 (ligand, UniProt P78423 25-100, looked up)
# chain: QHHGVTKCNITCSKMTSKIPVALLIHYQQNQASCGKRAIILETRQHRLFCADPKEQWVKDAMQHLDRQAAALTRNG
# modifications: 125I label where used as radioligand
# notes: also called CX3CL1/Fractalkine
# Experiments:
# [1] = molecular target: T1, US28 wild type, G protein-coupled receptor of human cytomegalovirus strain VHL/E (human cytomegalovirus strain VHL/E); assay: competition of unlabeled CX3CL1 against 125I-CX3CL1 on US28
# T1 construct: whole, on cells; In some assays membranes of transfected cells were used; also called US28-WT; US28 VHL/E
# [2] = molecular target: T1, US28 wild type, G protein-coupled …; assay: displacement of 125I-CX3CL1 from US28-expressing HEK293T membranes by unlabeled CX3CL1
binder,measurement,setting,value
B1,IC50 (read off the curve),[1],~100 pM
same,IC50 (read off the curve),[2],~300 pM

# — US12037382 (STICHTING VU, dated 2024)
